Where a SMILES comes first, the peptide text is derived from it. Where no end group is shown, it is not given here. [ ]: non-standard residue; d: D form. Tyr(3-I) = N[C@@H](Cc1ccc(O)c(I)c1)C(=O)O; Nle = CCCC[C@H](N)C(=O)O

The source of these data is patent US6632621B1, “G protein-coupled receptor-like receptors and modulators thereof” (priority 1999, dated 2003).

One assay addresses T1, CEGPCR7 receptor (Caenorhabditis elegans, UniProt Q18534).
T1 construct: Each of the 22 putative GPCR-like receptor clones appeared to contain a full-length coding region; expressed in transfected cells; host or cells: CHO-K1, transient, pCR3.1 clone, 37 to 28 C temperature shift
T1 sequence (Q18534 1-457): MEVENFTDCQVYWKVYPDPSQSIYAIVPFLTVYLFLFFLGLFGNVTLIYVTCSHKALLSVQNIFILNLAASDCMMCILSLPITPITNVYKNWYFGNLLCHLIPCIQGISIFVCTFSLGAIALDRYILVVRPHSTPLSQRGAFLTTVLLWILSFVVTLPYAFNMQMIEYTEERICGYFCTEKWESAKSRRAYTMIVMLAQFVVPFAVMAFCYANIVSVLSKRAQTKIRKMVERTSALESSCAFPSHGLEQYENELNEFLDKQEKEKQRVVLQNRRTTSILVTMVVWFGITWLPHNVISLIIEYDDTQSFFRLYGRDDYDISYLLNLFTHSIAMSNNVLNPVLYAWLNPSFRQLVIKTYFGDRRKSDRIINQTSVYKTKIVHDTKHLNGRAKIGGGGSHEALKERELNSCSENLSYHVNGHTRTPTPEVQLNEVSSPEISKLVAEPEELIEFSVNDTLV
Put plainly: [35S]GTPγS binding assay, membranes of CHO cells transfected with CEGPCR7. Format: biochemical, C. elegans. The method, then:
(§1) Recombinant pCR3.1 clones encoding invertebrate GPCR-like receptors were transformed into wild-type CHO-K1 cells and functional expression was achieved using a temperature-shift incubation protocol. The CHO-K1 cells were cultured at 37° C. in a humidified atmosphere of 5% CO2 in air in DMEM medium supplemented with 10% heat-inactivated fetal bovine serum (i.e., FBS), 10 μg/ml gentamicin, and 0.1 mM nonessential amino acids to give complete DMEM medium. Additionally, for incubations at temperatures lower than 37° C., the medium was fortified with 10 mM HEPES (pH 7.4). Cells were transfected with recombinant pCR3.1 clones containing GPCR-like receptor DNAs, using LipofectAMINE PLUS™, essentially according to the manufacturer's instructions. […] In separate plastic tubes, PLUS (20 μl/plate; Life Technologies) was added to 0.75 ml/plate of recombinant plasmid DNA in OptiMEM (5 μg/plate; Gibco/BRL—Life Technologies), mixed and incubated at room temperature for 15 minutes. Separately, LipofectAMINE (30 μl/plate) was mixed with 0.75 ml OptiMEM and added to the pre-complexed DNA/PLUS mixture and incubated at room temperature for 15 minutes. The culture medium was then replaced with serum-free transfection medium (DMEM, 5 ml/plate). The DNA-PLUS-LipofectAMINE complex was then added to the plates (1.5 ml/plate) and mixed gently into the medium, followed by a 3 hour incubation at 37° C. in 5% CO2. At this time, the medium was supplemented with complete DMEM medium containing 20% FBS (6.5 ml/plate) and incubation was continued at 37° C. in 5% CO2. After a total of 24 hours at 37° C. in 5% CO2, the medium was replaced with complete DMEM medium fortified with 10 mM HEPES (10 ml/plate) and the cells were moved to an incubator maintained at 28-30° C. in a humidified atmosphere of 5% CO2 in air. The incubation continued for an additional 24 hours, typically at the lower temperature indicated above. A plasmid encoding Green Fluorescent Protein (i.e., GFP, 4 μg/plate) was used for transient GFP expression in CHO-K1 cells to estimate the transfection yields under the same conditions as used for GPCR-like receptor polynucleotides.
(§2) To assess expression, membranes were prepared from transfected CHO-K1 cells. Transfected cells were washed once with ice-cold Dulbecco's phosphate-buffered saline (i.e., PBS), 5 ml per 10 cm plate, and the cells were scraped into 5 ml of the same buffer. Cell suspensions from multiple plates were combined and centrifuged at 500×g for 10 minutes at 4° C. The cell pellet was reconstituted in ice-cold TEE (25 mM Tris, pH 7.4, 5 mM EGTA, 5 mM EDTA). Convenient aliquots were snap-frozen in liquid nitrogen and stored at −70° C. After thawing, the cells were homogenized and centrifuged at 500×g for 5 minutes at 4° C. to pellet nuclei and unbroken cells. Tile supernatant was centrifuged at 47,000×g for 30 minutes at 4° C. The membrane pellet was washed once with TEE, resuspended in 20 mM HEPES, pH 7.4, 100 mM NaCl, 10 mM MgCl2, 1 mM EDTA (assay buffer), distributed into aliquots of 0.5-1.0 ml, and frozen in liquid nitrogen. Membrane aliquots were stored at −70° C. Membrane protein concentration was determined using the BCA Protein Assay Reagent from Pierce (Rockford, Ill.), with bovine serum albumin (i.e., BSA) as a standard.
Aliquots of cell membranes prepared as described above and stored at −70° C. were thawed, homogenized, and diluted into buffer containing 20 mM HEPES, pH 7.4, 10 mM MgCl2, 1 mM EDTA, and 100 mM NaCl at a concentration of 10-50 μg/ml.
(In general: GTPγS is a poorly hydrolysed GTP analogue; its binding reports G protein activation.)

A further assay concerns the target T2, CEGPCR5 (Caenorhabditis elegans, UniProt Q18179).
T2 sequence (Q18179 1-402): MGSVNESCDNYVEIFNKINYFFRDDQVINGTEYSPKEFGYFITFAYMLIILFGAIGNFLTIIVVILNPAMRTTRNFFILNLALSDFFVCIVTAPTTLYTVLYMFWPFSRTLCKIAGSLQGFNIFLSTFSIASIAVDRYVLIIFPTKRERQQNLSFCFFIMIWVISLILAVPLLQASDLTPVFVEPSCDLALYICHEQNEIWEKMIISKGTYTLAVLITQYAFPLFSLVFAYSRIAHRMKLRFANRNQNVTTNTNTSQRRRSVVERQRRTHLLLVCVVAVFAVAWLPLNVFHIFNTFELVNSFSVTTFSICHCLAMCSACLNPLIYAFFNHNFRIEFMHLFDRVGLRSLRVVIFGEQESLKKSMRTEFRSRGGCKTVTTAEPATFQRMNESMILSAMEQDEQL
The assay is described as follows: [35S]GTPγS binding assay, CEGPCR5 expressed in CHO cells. Format: biochemical, C. elegans. The settings on record: for EC50: EC50 range. The method, then: as §1, §2
Aliquots of cell membranes prepared as described above and stored at −70° C. were thawed, homogenized, and diluted into buffer containing 20 mM HEPES, pH 7.4, 10 mM MgCl2, 1 mM EDTA, and 100 mM NaCl at a concentration of 10-50 μg/ml. Reaction mixtures were prepared in 96-well polypropylene plate, Nunc. Twenty microliters of a 10× putative modulator compound (including but not limited to potential peptide ligands) solution or a water control (20 μl), 18.2 µM GDP (0.11 ml, 10 μM final concentration), and a membrane preparation were mixed and placed on ice. The modulator/ligand-GDP-membrane mixtures were incubated for 20 minutes at room temperature on a shaking platform and then placed on ice.

In another assay the target is CEGPCR19.2 (Caenorhabditis elegans, UniProt H2KZY4). The assay is described as follows: calcium mobilization assay (FLIPR), transiently transfected CHO cells, CEGPCR19.2. It is filed as cell-based, C. elegans. To be noted: Table 13; peptides at 10 μM. The method, then:
Changes in intracellular calcium levels are another recognized indicator of […] receptor activity, and such assays can be employed to assay for modulators of GPCR-like receptor activity. For example, CHO cells stably transfected with a GPCR-like receptor expression construct are plated at a density of 4×10^4 cells/well in Packard black-walled 96-well plates specially designed to isolate fluorescent signals to individual wells. The cells are incubated for 60 minutes at 37° C. in modified Dulbecco's PBS (D-PBS), containing 36 mg/L pyruvate and 1 g/L glucose with the addition of 2.5 mM probenecid (Sigma Chemical Co.) and one of four calcium indicator dyes (Fluo3™ AM, Fluo4™ AM, Calcium Green™-1 AM, or Oregon Green™ 488 BAPTA-1 AM) at a concentration of 4 μM. Plates are washed once with modified D-PBS […] 1% fetal bovine serum and incubated for 10 minutes at 37° C. to remove residual dye from the cellular membrane. In addition, a series of washes with modified D-PBS is performed immediately prior to activation of the calcium response.
Calcium response is initiated by the addition of one or more candidate receptor agonist compounds, or a positive control such as a calcium ionophore A23187 (10 μM), or ATP (4 μM). Fluorescence is measured by Molecular Device's FLIPR with an argon laser, excitation at 488 nm. […] Basal fluorescence of cells was measured for 20 seconds prior to addition of agonist, ATP, or A23187, and was subtracted from the response signal. The calcium signal is measured for approximately 200 seconds, taking readings every two seconds. […]
This appears especially useful for the assessment of possible activation of orphan GPCRs (i.e., GPCRs having unknown functions and unknown signaling pathways). […] Because the GTPγS assay is known to poorly recognize GPCRs coupled to the Gq class of G-proteins, a Ca^+2 mobilization assay, based on a FLIPR readout, was used as well to evaluate putative Gq-couplcd orphan GPCRs transiently transfected into CHO cells. […] Without the temperature downshift, expression of functional receptor could not be detected. […]
In general terms: Calcium flux is commonly read through the fluorescence of an indicator in the cells.

The target in assay [1] is T3, CEGPCR4 (C. elegans).
T3 construct: Expressed in CHO cells; also called CEGPCR4 receptor; CEGPCR4/CHO membranes
T3 chain: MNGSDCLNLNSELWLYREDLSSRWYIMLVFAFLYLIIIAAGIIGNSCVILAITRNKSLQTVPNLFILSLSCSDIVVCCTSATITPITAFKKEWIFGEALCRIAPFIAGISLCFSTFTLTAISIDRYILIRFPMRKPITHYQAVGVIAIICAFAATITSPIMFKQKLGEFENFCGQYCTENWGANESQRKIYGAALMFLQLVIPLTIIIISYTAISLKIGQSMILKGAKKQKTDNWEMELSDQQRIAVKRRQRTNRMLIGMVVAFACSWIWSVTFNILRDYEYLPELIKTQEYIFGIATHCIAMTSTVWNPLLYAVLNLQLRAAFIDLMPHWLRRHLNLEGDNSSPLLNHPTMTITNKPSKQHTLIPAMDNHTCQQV
Put plainly: competition binding assay, CEGPCR4/CHO membranes; IC50 range printed once for block r9-r18.

Assay [2] has as its target T3, CEGPCR4. The assay is described as follows: competition binding assay, CEGPCR4/CHO membranes; IC50 range printed once for block r19-r25.

CEGPCR19.2, sequence (H2KZY4 entry or part of it): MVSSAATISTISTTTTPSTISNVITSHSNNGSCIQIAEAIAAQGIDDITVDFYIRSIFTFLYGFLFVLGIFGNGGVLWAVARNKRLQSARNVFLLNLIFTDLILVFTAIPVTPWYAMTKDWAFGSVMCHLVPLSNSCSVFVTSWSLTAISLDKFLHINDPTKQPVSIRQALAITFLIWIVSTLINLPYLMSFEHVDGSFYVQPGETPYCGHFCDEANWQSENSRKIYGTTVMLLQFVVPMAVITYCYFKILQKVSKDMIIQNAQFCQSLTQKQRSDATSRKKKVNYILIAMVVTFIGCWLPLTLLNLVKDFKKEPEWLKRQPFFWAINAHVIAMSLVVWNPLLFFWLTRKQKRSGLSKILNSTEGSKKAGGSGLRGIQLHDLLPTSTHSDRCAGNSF

As to `CC(C)C[C@H](NC(=O)CNC(=O)[C@@H](N)Cc1ccc(O)c(I)c1)C(=O)NCC(=O)N1CCC[C@H]1C(=O)N[C@@H](CCCNC(=N)N)C(=O)N1CCC[C@H]1C(=O)N[C@@H](CC(C)C)C(=O)N[C@@H](CCCNC(=N)N)C(=O)N[C@@H](Cc1ccccc1)C(N)=O` [[I]Y^0-GLGPRPLRF-NH2] (H-[Tyr(3-I)]GLGPRPLRF-NH2), the EC50 (as a rule, the concentration that produces a half-maximal response) was 0.237 µM on CEGPCR7 receptor (EC50, single values); 0.2 to 0.25 µM on CEGPCR7 receptor (EC50 range, Table 7, one range for the group of peptides); 0.176 to 0.273 µM at CEGPCR5; 0.08 to 0.8 µM at CEGPCR5 (Table 9, one range for the group of peptides). In addition, the “less potent than AF9” value at CEGPCR5 (ratio of potency) is “about 200 fold”.
Regarding KPNFIRF-NH2, in the assay with CEGPCR19.2, the “activity at single concentration” value is “peptides active”.
For KSVPGVLRF-NH2 (flp18) [KSVPGVLRF-NH2], in the assay with CEGPCR4 [1], the binding result is “binds”.
For the molecule GNSFLRF-NH2 (also called GNSFLRFamide) [GNSFLRF-NH2], in the assay with CEGPCR4 [2], the binding result is recorded as “binds”.
On to ASPSFIRF-NH2 (flp4) [ASPSFIRF-NH2], for which, in the assay with CEGPCR4 [1], the binding result was “binds”.
For SVPGVLRF-NH2 (flp18) [SVPGVLRF-NH2], in the assay with CEGPCR4 [1], the binding result is on record as “binds”.

B1: ILNleRF-NH2 (peptide)
peptide: IL[Nle]RF-NH2
modifications: N-terminus assumed
SMILES: CCCC[C@H](NC(=O)[C@H](CC(C)C)NC(=O)[C@@H](N)[C@@H](C)CC)C(=O)N[C@@H](CCCNC(=N)N)C(=O)N[C@@H](Cc1ccccc1)C(N)=O
notes: synthetic
Turning to B1, the binding result with CEGPCR4 [2] is “binds”.
With DFDGAMPGVLRF-NH2 (flp18) [DFDGAMPGVLRF-NH2], the binding result with CEGPCR4 [1] was “binds”.
In the case of KPNFLRF-NH2 (flp1) [KPNFLRF-NH2], in the assay with CEGPCR4 [2], the binding result was “binds”.
Turning to SEVPGVLRF-NH2 (flp18) [SEVPGVLRF-NH2], the binding result with CEGPCR4 [1] is on record as “binds”.
